Values joined by “and” are separate entries in the source; they are usually repeats but may differ in a detail not shown here. Equal values may be shown once.
Tests used:
[1] = test system: IGF1R expressing H322M tumor xenografts; assay: Near Infrared Fluorescence Imaging (NIRF) in vivo, H322M xenografts; set-up: species or system mice; conditions: not complexed with antibody; some accumulation in the liver
Experimental: To analyze if the specific antigen binding functionality of the antibody-complexes can be utilized to specifically deliver imaging reagents to tumor cells, we performed Near Infrared Fluorescence Imaging Studies (NIRF) in vivo. […] These xenografts were either expressing the antigen Her2 (KPL4 cells) or the antigen IGF1R (H322M cells). Subsequently NIRF imaging was performed by using the Maestro system from CRI. Animals were placed in a measuring chamber and the fluorescence was measured over a defined spectral wavelength array, depending on the dye. Spectral information of each pixel of the obtained image was analyzed by a special software which allows to separate different pre-defined spectra, e.g. autofluorescence and the signal of the dye. Theses separated specific signals were quantified by the Maestro software in order to compare different samples.
To analyze whether the <Her2>-<Dig>-Dig-siRNA complexes, and <IGF1R>-<Dig>-Dig-siRNA complexes mediate specific targeting of their payload towards antigen expressing cells not only in cell culture experiments but also in live animals, we made use of the fact that siRNAs can simultaneously be labeled with Dig as well as with fluorescence labels. […] The technology that we've applied for this task is Near Infrared Fluorescence Imaging (NIRF) in vivo. […]

[2] = Excitation and emission spectra of Cy5, Dig-Cy5 and complex; format: physicochemical
From the text: To evaluate whether digoxygenation of Cy5 alters its fluorescence features, we compared the excitation and emission spectra of Cy5 and compared it with the spectra of the newly generated Dig-Cy5 and with Dig-Cy5 within a complex with bispecific antibodies. […] We conclude that Dig-Cy5 and -complexes can be applied for antibody-mediated targeting and in vivo imaging.

[3] = test system: CD22 positive Raji and Ramos cells; assay: FACS analysis with <CD22>-<DIG> and DIG-Cy5; format: cell-based; conditions: 5 μg/ml <CD22>-<DIG>, DIG-Cy5 66.4 nM
Experimental: For these analyses we used CD22 positive Raji and Ramos cells and the bispecific <CD22>-<DIG> antibody. 3×10^5 cells per well of a 96-well-plate were incubated with 5 μg/ml of the <CD22>-<DIG> antibody in FACS buffer (PBS containing 5% FCS). After washing the cells were incubated with DIG-Cy5 in a final concentration of 66.4 nM. After another washing step cells were analysed with the FACS canto II (BD Biosciences).

H322M cells = assay: CellTiter Glo Luminescent Cell Viability Assay, doxorubicin; format: cell-based; conditions: Homo sapiens, NCI-H322M, 48 hours
Experimental: (§2) Then, cell viability was assessed by applying the CellTiter Glo Luminescent Cell Viability Assay (Promega, Madison, Wis.).

MDA-MB-468 cells = assay: as above; format: cell-based; conditions: Homo sapiens, 48 hours
Experimental: as §2
These experiments included an additional breast tumor cell line MDA-MB-468. […] Thereafter, cell viability was assessed by applying the CellTiter Glo Luminescent Cell Viability Assay (Promega, Madison, Wis.).

KPL-4 cells = assay: as above; format: cell-based; conditions: Homo sapiens, KPL4, 48 hours
Experimental: as §2

Eg5-siRNA-DIG = assay: SPR (Biacore) binding to mono-digoxygenated siRNA; conditions: 25° C.
Experimental: (§3) For that, binding properties of the recombinant <Dig> derivatives were analyzed by surface plasmon resonance (SPR) technology using a Biacore T100 or Biacore 3000 instrument (GE Healthcare Bio-Sciences AB, Uppsala). […] To perform the binding studies capturing anti-human IgG antibody was immobilized on the surface of a CM5 biosensor chip using amine-coupling chemistry. Flow cells were activated with a 1:1 mixture of 0.1 M N-hydroxysuccinimide and 0.1 M 3-(N,N-dimethylamino)propyl-N-ethylcarbodiimide at a flow rate of 5 μl/min. […] A reference control flow cell was treated in the same way but with vehicle buffers only instead of the capturing antibody. Surfaces were blocked with an injection of 1 M ethanolamine/HCl pH 8.5. […]
(§4) Anti-mouse IgG antibody was immobilized on the surface of a CM5 biosensor chip in the same fashion as described above. […] The samples to be analyzed were diluted in HBS-P (10 mM HEPES, pH 7.4, 150 mM NaCl, 0.005% Surfactant P20) and injected at a flow rate of 5 μl/min. […] Signals were detected at a rate of one signal per second.
(§5) The samples to be analyzed were diluted in HBS-P and injected at a flow rate of 5 μl/min. […]

DIG-Myoglobin = assay: SPR binding to mono-digoxygenated protein DIG-myoglobin; conditions: analyte DIG-Myoglobin; replicate lines; listed as <DIG>hu2
Experimental: (§1) For that, binding properties of the recombinant <Dig> derivatives were analyzed by surface plasmon resonance (SPR) technology using a Biacore T100 or Biacore 3000 instrument (GE Healthcare Bio-Sciences AB, Uppsala). This system is well established for the study of molecule interactions. It allows a continuous real-time monitoring of ligand/analyte bindings and thus the determination of association rate constants (ka), dissociation rate constants (kd), and equilibrium constants (KD) in various assay settings. SPR-technology is based on the measurement of the refractive index close to the surface of a gold coated biosensor chip. Changes in the refractive index indicate mass changes on the surface caused by the interaction of immobilized ligand with analyte injected in solution. If molecules bind to immobilized ligand on the surface the mass increases, in case of dissociation the mass decreases. To perform the binding studies capturing anti-human IgG antibody was immobilized on the surface of a CM5 biosensor chip using amine-coupling chemistry. Flow cells were activated with a 1:1 mixture of 0.1 M N-hydroxysuccinimide and 0.1 M 3-(N,N-dimethylamino)propyl-N-ethylcarbodiimide at a flow rate of 5 μl/min. […] A reference control flow cell was treated in the same way but with vehicle buffers only instead of the capturing antibody. Surfaces were blocked with an injection of 1 M ethanolamine/HCl pH 8.5. To compare the binding of the humanized protein variants with that of the murine <Dig> IgG from the original hybridoma 19-11, capturing anti-mouse IgG antibody was immobilized on the surface of a CM5 biosensor chip in the same fashion as described above for the anti-human IgG antibody. To evaluate the functionality of the recombinant <Dig> derivatives, binding of the recombinant hu<Dig> modules, incl. (i) humanized IgG, (ii) fusion proteins harboring hu<Dig> scFv or (iii) disulfide-stabilized scFvs was assayed with different digoxygenated antigens The resulting binding affinities were compared to the binding of the murine ‘wildtype’ DIG-IgG from which the recombinant humanized modules were derived.
Another SPR study was performed in which the binding affinity of <DIG>-hu2, IGF1R-DIG and <DIG> M-19-11 was compared in terms of binding to the mono-digoxygenated protein DIG-myoglobin.

Eg5-siRNA-(2×)DIG = assay: SPR (Biacore) binding to bi-digoxygenated siRNA; conditions: 25° C., read-out: KD, binding of siRNA-(2x)DIG
Experimental: as §3, §4, §5

[4] = SPR (BiaCore) of sequence-optimized anti-Dig modules; format: binding; conditions: FIG. 46 c, d, read-out: KD of anti-Dig module
From the text: Further optimization of the humanized VH and VL sequences of the anti-digoxygenin antibody was applied to generate modules with even higher affinity towards digoxygenin. Based upon the experimentally determined as well as in-silico calculated predicted structures (see above, based upon structure modeling without experimental structure determination), we identified three positions in which alterations might affect affinity. These were located at (Kabat positions) Ser49, Ile57 and Ala60 of the VH domain (FIG. 46). Replacement of the amino acid VHSer49 with Ala, VHIle57 with Ala and of VHAla60 with Pro generated antibody derivatives with sequences that are listed as SEQ ID NO 36 and SEQ ID NO 37. […] The relevance of these positions was thereafter confirmed by inspecting the experimentally determined structure of the dig-binding variable region. The digoxygenin binding module with improved affinity can be applied as hapten-binding entity for various bi- and multispecific antibody derivatives.
For that, binding properties of the recombinant <Dig> derivatives were analyzed by surface plasmon resonance (SPR) technology using a Biacore T100 or Biacore 3000 instrument (GE Healthcare Bio-Sciences AB, Uppsala). This system is well established for the study of molecule interactions. […]

DIG-siRNA2349 = assay: SPR binding to DIG-siRNA2349; conditions: analyte DIG-siRNA2349; replicate lines; listed as <DIG>hu2
Experimental: as §1, with “derived. […]” for “derived.”

For `CCN1c2ccc(S(=O)(=O)O)cc2C(C)(C)C1/C=C/C=C/C=C1\N(CCCCCC(=O)NCCNC(=O)CO[C@H]2CC[C@@]3(C)[C@H](CC[C@@H]4[C@@H]3C[C@@H](O)[C@]3(C)[C@@H](C5=CC(=O)OC5)CC[C@]43O)C2)c2ccc(S(=O)(=O)O)cc2C1(C)C` (stereo partly drawn) [Dig-Cy5], the “tumor specific fluorescence (NIRF) without antibody” value [1] was “no tumor specific fluorescence”, the “Emission wavelength (max.)” value [2] was “at 670 nm” and the Excitation wavelength [2] was 575-605 nm. The “binding to Raji or Ramos cells (FACS)” value [3] was “hardly any binding”.

In the case of `COc1cccc2c1C(=O)c1c(O)c3c(c(O)c1C2=O)C[C@@](O)(C(=O)CO)C[C@@H]3O[C@H]1C[C@H](N)[C@H](O)[C@H](C)O1` [doxorubicin, Doxorubicin], the IC50 (H322M cells) is reported as 25000 nM, the IC50 (MDA-MB-468 cells) is reported as 17000 nM and the IC50 (KPL-4 cells) is reported as 2600 nM.

B1: humanized DIG-IgG: recombinant humanized anti-digoxigenin IgG; Seq. ID. NO. 3-6 (antibody, V domains shown)
VH: QVQLVESGGGLVKPGGSLRLSCAASGFTFSDYAMSWIRQAPGKGLEWVSSINIGATYIYYADSVKGRFTISRDNAKNSLYLQMNSLRAEDTAVYYCARPGSPYEYDKAYYSMAYWGQGTTVTVSS
VL: DIQMTQSPSSLSASVGDRVTITCRASQDIKNYLNWYQQKPGKAPKLLIYYSSTLLSGVPSRFSGSGSGTDFTLTISSLQPEDFATYYCQQSITLPPTFGGGTKVEIKR
notes: recombinant humanized anti-digoxigenin IgG; ID; NO; 3-6
For B1, the Kd (Eg5-siRNA-DIG) was 12 nM, the ka (DIG-Myoglobin) was 620000 M⁻¹ s⁻¹ and 749000 M⁻¹ s⁻¹ and the kd (DIG-Myoglobin) was 0.00982 s⁻¹ and 0.00881 s⁻¹. The Kd (Eg5-siRNA-(2×)DIG) was 0.008 nM, the Kd [4] was 12 nM and the Kd (DIG-siRNA2349) was 14.5 nM and 15.6 nM. For the same molecule, the ka (DIG-siRNA2349) was 645000 M⁻¹ s⁻¹ and 628000 M⁻¹ s⁻¹ and the kd (DIG-siRNA2349) was 0.00937 s⁻¹ and 0.0098 s⁻¹.

From patent US9050375B2, “Bi-specific digoxigenin binding antibodies” (priority 2009, dated 2015)
